According to PMC4069078:
Blank lines part the entries; values can stand above or below the substance they belong to.

Columns and labels:
[1] = molecular target: ChiAVD–G42A (chicken | not stated) (UniProt P56734); experiment: dynamic light scattering; 50 mM NaH2PO4/Na2HPO4, 100 mM NaCl, pH 7 at 25°C; volume distribution
[2] = molecular target: ChiAVD–G42F (chicken | not stated) (UniProt P56734); experiment: as above
[3] = molecular target: Chimeric avidin ChiAVD(I117Y) (chicken | not stated) (UniProt P02701); experiment: as above
[4] = molecular target: Chimeric avidin ChiAVD(I117Y) (chicken | not stated) (UniProt P02701); experiment: solution NMR structure; biotin-bound ChiAVD, 13C/15N-labelled, 58°C, 800 MHz; intersubunit NOE peaks identified by inspection of avidin crystal structures and manually assigned; RDCs in bicelles at 40°C

stoichiometry N [1]: 4
Substance: ChiAVD–G42A (from UniProt P56734 62-82; P02701 85-152)

stoichiometry N [2]: 4
Substance: ChiAVD–G42F (from UniProt P56734 62-82; P02701 85-152)

stoichiometry N [3]: 4
Substance: Chimeric avidin ChiAVD(I117Y) (from UniProt P02701 85-152)
stoichiometry N [4]: 4
